The target in assay [1] is HLA-A*0201 (human), P04439.
Assay [2] addresses HLA-A*0201 (human), P04439. The experiment in a line: T2 cell HLA-A*0201 stabilisation, affinity category by BL50.

In US20110262529A1 one finds BL50 (half-maximal binding level) and BL50 data, which are given here for 20 molecules.

As for VLAWLYAAV (modifications not checked) [pp1a-3444], the BL50 (half-maximal binding level) in assay [1] worked out at 53 µM.

As to KLNIKLLGI (modifications not checked) [pp1a-3816], the BL50 (half-maximal binding level) in assay [1] amounted to 68.1 µM. Besides, in assay [2], the BL50 was < 100 µM. The like results for LLCVLAALV (modifications not checked) [pp1a-2755] were, in that order, 187 µM and 100 to 200 µM. The matching figures for TLGVLVPHV (modifications not checked) [pp1a-103]: 3.1 µM and < 100 µM. The like results for VLLSVLQQL (modifications not checked) [pp1a-3848] were, in that order, 102 µM and 100 to 200 µM. In turn, FLLPSLATV (modifications not checked) [pp1a-3616] registered a BL50 (half-maximal binding level) in assay [1] of 31.8 µM. With YLSSVLLAL (modifications not checked) [pp1a-1652], the BL50 (half-maximal binding level) in assay [1] was 6.7 µM. Also, the BL50 in assay [2] was < 100 µM. In turn, FLNRFTTTL (modifications not checked) [pp1a-3459] gave a BL50 (half-maximal binding level) in assay [1] of 39.6 µM. MLSRALKKV (modifications not checked) [pp1a-1288] gave a BL50 (half-maximal binding level) in assay [1] of 65.1 µM. In assay [2], the BL50 was < 100 µM. In assay [1], CLDAGINYV (modifications not checked) [pp1a-2187] yielded a BL50 (half-maximal binding level) of 3 µM. In addition, the BL50 in assay [2] was < 100 µM. The like results for LLFITGNTL (modifications not checked) [pp1a-3745] were, in that order, 154 µM and 100 to 200 µM. The matching figures for KLSAGVEFL (modifications not checked) [pp1a-634]: 59.8 µM and < 100 µM.

In turn, QLSLPVLQV (modifications not checked) [pp1a-15] returned a BL50 (half-maximal binding level) in assay [1] of 75.7 µM. In addition, in assay [2], the BL50 is < 100 µM. As to FLITGVFDI (modifications not checked) [pp1a-651], the BL50 (half-maximal binding level) in assay [1] came to 8.4 µM.

VLGSLAATV (modifications not checked) [pp1a-4219] came in with a BL50 (half-maximal binding level) in assay [1] of 53.3 µM. The BL50 in assay [2] is < 100 µM.

Regarding MLLTFLTSL (modifications not checked) [pp1a-3560], the BL50 (half-maximal binding level) in assay [1] was found to be 47.1 µM. In addition, the BL50 in assay [2] was < 100 µM. The like results for SLQVCVQTV (modifications not checked) [pp1a-1139] were, in that order, 4.9 µM and < 100 µM. As for TLNEDLLEI (modifications not checked) [pp1a-445], the BL50 (half-maximal binding level) in assay [1] is 19.2 µM.

Take ALSGVFCGV (modifications not checked) [pp1a-2990]: the BL50 (half-maximal binding level) in assay [1] was found to be 6.2 µM. The BL50 in assay [2] is < 100 µM. Consider AMWLLLLSI (modifications not checked) [pp1a-2207], for which, in assay [1], the BL50 (half-maximal binding level) amounted to 323 µM.
